Source: patent US20240325562A1, “INTERNALIZING BINDING MOLECULES” (LinXis B.V., priority 2020, published 2024)

Assays:
hIGF2R-ECD = target: T1, hIGF2R-ECD (Homo sapiens, UniProt P11717); assay: Competition assay with 13F11-A647 as reporter VHH on immobilized hIGF2R-ECD; format: binding; conditions: for competition with reporter VHH 13F11-A647: 10 nM 13F11-A647, 250 nM unconjugated competitor VHH; for less fluorescence intensity (decrease in binding of labelled 13F11): 10 nM labelled 13F11, 250 nM unlabelled competitor VHH
T1 construct: immobilized recombinant human extracellular domain of IGF2R (hIGF2R-ECD) was used
Description: With the term “compete” is meant that in a competition assay, such as for instance described in Example 6 of the present invention, the addition of a binding molecule induces a significant decrease in binding of a given VHH, i.e., the VHH to which the competing is determined. “Significant” in this respect is preferably a decrease of >5%, preferably >10% when 250 nM of a binding molecule is added to 10 nM of a fluorescence labelled VHH in an ELISA. […] The same test conditions and threshold apply to a binding molecule directed to PDGFRB when determining whether a binding molecule competes with a given VHH.
(§1) Biparatopic VHH constructs contain two VHH which bind to a different epitope, i.e. which are non-competitive binders. To identify (a) pair(s) of non-competitive binders, competition assays were performed. In the example shown, an Alexa fluor-conjugate of the high affine VHH 13F11 was used as the reporter VHH (13F11-A647, see example 10.2). In the assay, a non-saturating amount (10 nM) of 13F11-A647 was incubated with immobilized hIGF2R-ECD in the presence or absence of 250 nM unconjugated competitor VHH to allow competition to take place.

hPDGFRB = hPDGFRB (Homo sapiens, UniProt P09619); assay: Competition assays of PDGFRB VHHs on hPDGFRB; format: binding; conditions: for epitope group (mutual competition): VHHs from libraries 1 and 2, four main groups
Description: as §1
Similar as to in example 6.1, competition assays were performed to identify unique hPDGFRB- or rPDGFRB binders. Across 10 PDGFRB-binding VHHs obtained from libraries 1 and 2 (e.g. the VHH raised against hPDGFRB), four main groups were identified being first SP01P, SP02P, SP07P and SP13P, second SP05P, SP08P and SP10P, third SP12P and SP20P and finally SP14P. All VHH within each of the first three groups mutually competed.
To evaluate whether the obtained VHHs would qualify as building blocks for multivalent VHH constructs that bind hPDGFRB as well as rPDGFRB (e.g. ‘species cross-reactive’ VHH constructs), competition assays were performed using the most promising VHHs SP02 (raised against hPDGFRB) and SP26P (raised against rPDGFRB).

Chain of hPDGFRB (P09619 33-532 limits assumed): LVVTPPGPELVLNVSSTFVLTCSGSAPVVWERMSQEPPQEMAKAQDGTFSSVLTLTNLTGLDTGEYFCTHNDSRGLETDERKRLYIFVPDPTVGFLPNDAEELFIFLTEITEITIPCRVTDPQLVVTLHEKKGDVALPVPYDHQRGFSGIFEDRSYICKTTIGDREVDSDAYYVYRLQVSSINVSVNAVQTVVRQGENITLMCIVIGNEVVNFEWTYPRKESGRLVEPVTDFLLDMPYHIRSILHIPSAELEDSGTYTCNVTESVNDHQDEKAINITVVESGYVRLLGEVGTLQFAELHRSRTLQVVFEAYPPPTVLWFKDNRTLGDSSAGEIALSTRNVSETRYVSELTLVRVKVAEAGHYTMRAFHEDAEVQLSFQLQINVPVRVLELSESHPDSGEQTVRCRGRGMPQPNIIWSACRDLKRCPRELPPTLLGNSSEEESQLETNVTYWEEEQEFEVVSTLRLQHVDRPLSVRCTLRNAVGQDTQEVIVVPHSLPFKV

Row | Molecule | competition with reporter VHH 13F11-A647 (hIGF2R-ECD) | less fluorescence intensity (decrease in binding of labelled 13F11) (hIGF2R-ECD) | epitope group (mutual competition) (hPDGFRB) | competition between SP02 and SP26P (hPDGFRB; IRDye800-conjugated SP26P as reporter)
1 | 13A8: VHH single domain antibody targeting IGF2R, SEQ ID NO: 257 (protein) VHH: EVQLVESGGGLVPAGGSLRLSCAASGRTFSNYAMGWFRQAPGKERKFVATISWSGGVTYYADSVKGRFTISRDNAKNTVYLLMNSLKPEDTAVYYCAAKRDSSSYDHRRYDYWGQGTQVTVSS | competed with 13F11 | substantially more decrease in fluorescence intensity | – | –
2 | 13A12: VHH single domain antibody targeting IGF2R, SEQ ID NO: 289 (protein) VHH: EVQLVESGGGLVQAGGSLRLSCAASGIIFGANTVGWYRQVPGKERDVVASITSGDSTYYGDSVRGRFTISRDNAKNTMYLQMNSLKPEDTAIYYCRARTTDGSYWGQGTQVTVS | competed with 13F11 | substantially more decrease in fluorescence intensity | – | –
3 | 13C11: VHH single domain antibody targeting IGF2R, SEQ ID NO: 297 (protein) VHH: EVQLVESGGGLVQAGGSLRLSCAASGLTFSSYTMAWYRQAPGKEREVVAAISSGDSIYHEGSVQGRFIISRDNAKNTVYLQMNSLKAEDTAVYYCRANGPGTYWGQGTQVTVSS | competed with 13F11 | substantially more decrease in fluorescence intensity | – | –
4 | 13G10: VHH single domain antibody targeting IGF2R, SEQ ID NO: 305 (protein) VHH: EVQLVESGGGLVQAGGSLRLSCAASGLTFSSYTMAWYRQAPGKEREVVAAISSGDSIYHEDSVQGRFIISRDNAKNTVYLQMNSLKAEDTAVYYCRANGPGTYWGQGTQVTVSS | competed with 13F11 | substantially more decrease in fluorescence intensity | – | –
5 | 13E8: VHH single domain antibody targeting IGF2R, SEQ ID NO: 249 (protein) VHH: EVQLVESGGGLVQAGGSLRLSCAASRSISPMGWYRQAPGKQRELVAIMPSSGPPIYADSVQGRFTISRDNAKNTVYLQMNSLKPEDTAVYYCNVGGGYWGQGTQVTVSS | did not compete with 13F11 | less than 5% | – | –
6 | SP14P: VHH single domain antibody targeting PDGFRB, SEQ ID NO: 81 (protein) VHH: EVQLVESGGGLVQAGDSLRLSCVVSGLTFSRYGMGWFRQATGKEREFVGGISVGSSGTMYPNSVKGRFTISRDNAKSTVYLQMNSLKPEDTAVYFCAAIDQGSFVQQRDYRYWGQGTQVTVSS | – | – | lone VHH | –
7 | SP01P: VHH single domain antibody targeting PDGFRB, SEQ ID NO: 1 (protein) VHH: EVQLVESGGGLAQAGGSLRLSCVASGNIDSANGMAWYRQAPGKQRELVAHITSGTSYYVASVEGRFTISRANAKDTWYLQMNSLKPEDTGVYYCFPIGLSAHWSQGTQVTVSS | – | – | first | –
8 | SP02P: VHH single domain antibody targeting PDGFRB, SEQ ID NO: 9 (protein) VHH: EVQLVESGGGLVQAGGSLRLSCAASESISSIEQMGWFRQAPGKQRALVAINTYGGRTVYTNSVEGRFTMSRDSAKNMVYLQMTSLEPEDTAVYYCYAQTTAWRGGVWGQGTQVTVSS | – | – | first | did not compete
9 | SP07P: VHH single domain antibody targeting PDGFRB, SEQ ID NO: 33 (protein) VHH: EVQLVESGGGSVQTGGSLRLSCAASGRSFSTYAMAWFRQAPGKEREFVAAINRRATDTVYADSAKGRFIISRDNDKNTVYLQMDSLKTEDTAVYYCAAAKNAYDWRWDRLRDRDYWGQRGQGTQVTVSS | – | – | first | –
10 | SP13P: VHH single domain antibody targeting PDGFRB, SEQ ID NO: 73 (protein) VHH: EVQLVESGGGLVQPGGSLRLSCAASESIFSINYMAWYRQAPGKQRELVAFSIDGSSTNYVDSVRGRFTASRDNAENTLYLQMNSLKPEDTAVYYCYAQGNTWAAGVWGQGTQVTVSS | – | – | first | –
11 | SP05P: VHH single domain antibody targeting PDGFRB, SEQ ID NO: 25 (protein) VHH: EVQLVESGGGLVQAGGSLRLSCAASGRTSFSGYAMAWFRQAPGKERDFVASITWSYGYTYYTDSAQGRFTISRDSAKNTVYLEMNSLKPEDTAVYYCAADPKASRFRILREYAYWGQGTQVTVSS | – | – | second | –
12 | SP08P: VHH single domain antibody targeting PDGFRB, SEQ ID NO: 41 (protein) VHH: EVQLVESGGGLVQAGGSLRLSCAASGRTFNGYAMAWFRQAPGKERDFVASITWSYGYTYYADSAQGRFTISRDSAKNTVYLEMNSLKPEDTAVYYCAADPKASRFRILRQYAHWGQGTQVTVSS | – | – | second | –
13 | SP10P: VHH single domain antibody targeting PDGFRB, SEQ ID NO: 49 (protein) VHH: EVQLVESGGGLVQAGGSLRLSCAASGRTFNGYAMGWFRQAPGKERDFVAAITWSYGYTHYAESVKGRFSISRDSANNMVYLEMNSLKPEDTAVYYCAADPKASRFRTLRRYDYWGQGTQVTVSS | – | – | second | –
14 | SP12P: VHH single domain antibody targeting PDGFRB, SEQ ID NO: 65 (protein) VHH: EVQLVESGGGLVQAGGSLRLSCVISGRTSPTYPMGWFRQSPGNEREFVASINWSGGWRNYADSVKGRFTISRDDAKNTVYLQMNSLKPEDTAVYYCARGQYSSGTPVYAHEYAYWGQGTQVTVSS | – | – | third | –
15 | SP20P: VHH single domain antibody targeting PDGFRB, SEQ ID NO: 113 (protein) VHH: EVQLVESGGGLVQAGGSLRLSCVISGRTSPTYPMGWFRQSPGNEREFVASINWSGGWRNYADSVKDRFTISRDDAKNTVYLQMNSLKPEDTAVYYCARGQYSSGTPVYAHEYAYWGQGTQVTVSS | – | – | third | –
